In patent publication US20130095097A1 (EMERGENT PRODUCT DEVELOPMENT SEATTLE, published 2013):

How the values were obtained:
[1] = biological target: T1, CD28 mIg (UniProt P10747 19-152); assay: SPR, CD28-mIgG immobilized; reference 2E12 SMIP (M0039)
T1 construct: Coated on ELISA plates and amine-coupled to a CM5 chip; also called CD28-mIgG; immobilized CD28
Procedure: (§1) Surface plasmon resonance (SPR) measurements were performed on a Biacore T100 SPR using HBS-P+ (GE Healthcare) as a running buffer. CD28-mIgG (25 μg/mL in 10 mM sodium acetate, pH 4.0) was directly immobilized onto a CM5 chip using standard amine coupling chemistry (Biacore Amine Coupling Kit, GE Healthcare), with final immobilization levels between 800 and 1900 Ru (resonance units). 2E12 binding domain constructs were injected at 25° C. or 37° C. for 150 seconds at a flow rate of 30 μl/min in a series of concentrations from 10 nM to 1 μM. Dissociation was monitored for 1200 seconds, and the surface was regenerated by injecting 50 mM NaOH for 60 seconds. Binding interactions with the surface were stable through at least 60 regeneration cycles. Data were analyzed using BiaEvaluation for the T100 software (version 2.0, GE Healthcare).
(§2) Surface plasmon resonance was used to measure binding of immobilized CD28 by 2E12 binding domain constructs. […] Binding kinetics of the bivalent 2E12 constructs (e.g., 2E12 mAb, FIGS. 27A-27B) to immobilized CD28 could not be fit to a 1:1 Langmuir binding model, but could be fit with high accuracy to a bivalent analyte binding model (Table 5). Equilibrium dissociation constants (1(D) could be calculated with high accuracy for each construct by fitting the observed response at saturation to a steady-state equilibrium model (Table 5).

[2] = biological target: T1, CD28 mIg; assay: SPR, CD28-mIgG immobilized, steady-state equilibrium KD
Procedure: as §1, §2

[3] = biological target: T1, CD28 mIg; assay: SPR, CD28-mIgG immobilized, bivalent analyte model, first on rate ka (I)
Procedure: as §1, §2

[4] = biological target: T1, CD28 mIg; assay: SPR, CD28-mIgG immobilized, bivalent analyte model, first off rate kd (I)
Procedure: as §1, §2

[5] = biological target: T1, CD28 mIg; assay: SPR, CD28-mIgG immobilized, bivalent analyte model, second on rate (avidity); design: unit not given here
Procedure: as §1, §2

[6] = biological target: T1, CD28 mIg; assay: SPR, CD28-mIgG immobilized, bivalent analyte model, second off rate (avidity)
Procedure: as §1, §2

[7] = biological target: T1, CD28 mIg; assay: SPR, CD28-mIgG immobilized, kinetic KD, bivalent analyte model, initial binding at the first site only
Procedure: as §1, §2

[8] = biological target: T2, CD28 on Jurkat T cells (UniProt P10747 19-220, limits assumed); assay: flow cytometry on Jurkat cells
T2 construct: whole, on cells; also called Jurkat cells; Jurkat T cell lines

[9] = biological target: T3, CD28 mIg (UniProt P10747 19-152); assay: SPR, CD28-mIgG immobilized, 1:1 Langmuir model, ka (I)
Procedure: as §1, §2

[10] = biological target: T3, CD28 mIg; assay: SPR, CD28-mIgG immobilized, 1:1 Langmuir model, kd (I)
Procedure: as §1, §2

[11] = biological target: T3, CD28 mIg; assay: SPR, CD28-mIgG immobilized, kinetic KD (kd (I)/ka (I))
Procedure: as §1, §2

[12] = biological target: T3, CD28 mIg; assay: SPR, CD28-mIgG immobilized, steady-state equilibrium KD
Procedure: as §1, §2

Row | fold affinity difference against the 2E12 SMIP [1] [fold] | Kd [2] [nM] | kon [3] [M⁻¹ s⁻¹] | koff [4] [s⁻¹] | ka (II) [5] | kd (II) [6] [s⁻¹] | Kd [7] [nM] | binding result [8] | kon [9] [M⁻¹ s⁻¹] | koff [10] [s⁻¹] | Kd [11] [nM] | Kd [12] [nM] | Binder
1 | 2 | 11.4 | 176000 | 0.00104 | 0.00367 | 0.0127 | 6 | – | – | – | – | – | 2E12 monoclonal antibody (mAb) (antibody, V domains shown, also called 2E12 mAb; 2E12 Mab) VH: QVQLKESGPGSVAPSQSLSITCTVSGFSLTGYGVNWVRQPPGKGLEWLGMIWGDGSTDYNSALKSRLSITKDNSKSQVFLKMNSLQTDDTARYYCARDGYSNFHYYVMDYWGQGTSVTVSS VL: DIVLTQSPASLAVSLGQRATISCRASESVEYYVTSLMQWYQQKPGQPPKLLISAASNVESGVPARFSGSGSGTDFSLNIHPVEEDDIAMYFCQQSRKVPWTFGGGTKLEIK
2 | – | – | – | – | – | – | – | binds | – | – | – | – | Interceptor X0128 (X0120 + X0121) (other) chain 1: QVQLKESGPGSVAPSQSLSITCTVSGFSLTGYGVNWVRQPPGKGLEWLGMIWGDGSTDYNSALKSRLSITKDNSKSQVFLKMNSLQTDDTARYYCARDGYSNFHYYVMDYWGQGTSVTVSSGGGGSGGGGSGGGGSGGGGSDIVLTQSPASLAVSLGQRATISCRASESVEYYVTSLMQWYQQKPGQPPKLLISAASNVESGVPARFSGSGSGTDFSLNIHPVEEDDIAMYFCQQSRKVPWTFGGGTKLEIKSSSASTKGPSVFPLAPSSKSTSGGTAALGCLVKDYFPEPVTVSWNSGALTSGVHTFPAVLQSSGLYSLSSVVTVPSSSLGTQTYICNVNHKPSNTKVDKKVRTEPKSSDKTHTCPPCPSGAPELLGGPSVFLFPPKPKDTLMISRTPEVTCVVVDVSHEDPEVKFNWYVDGVEVHNAKTKPREEQYNSTYRVVSVLTVLHQDWLNGKEYKCKVSNKALPAPIEKTISKAKGQPREPQVYTLPPSRDELTKNQVSLTCLVKGFYPSDIAVEWESNGQPENNYKTTPPVLDSDGSFFLYSKLTVDKSRWQQGNVFSCSVMHEALHNHYTQKSLSLSPGKSRASTKGPSVFPLAPSSKSTSGGTAALGCLVKDYFPEPVTVSWNSGALTSGVHTFPAVLQSSGLYSLSSVVTVPSSSLGTQTYICNVNHKPSNTKVDKKV chain 2: TVAAPSVFIFPPSDEQLKSGTASVVCLLNNFYPREAKVQWKVDNALQSGNSQESVTEQDSKDSTYSLSSTLTLSKADYEKHKVYACEVTHQGLSSPVTKSFNRGERTEPKSSDKTHTCPPCPSGAPELLGGPSVFLFPPKPKDTLMISRTPEVTCVVVDVSHEDPEVKFNWYVDGVEVHNAKTKPREEQYNSTYRVVSVLTVLHQDWLNGKEYKCKVSNKALPAPIEKTISKAKGQPREPQVYTLPPSRDELTKNQVSLTCLVKGFYPSDIAVEWESNGQPENNYKTTPPVLDSDGSFFLYSKLTVDKSRWQQGNVFSCSVMHEALHNHYTQKSLSLSPGKSRTVAAPSVFIFPPSDEQLKSGTASVVCLLNNFYPREAKVQWKVDNALQSGNSQESVTEQDSKDSTYSLSSTLTLSKADYEKHKVYACEVTHQGLSSPVTKSFNRGE
3 | – | – | – | – | – | – | – | – | 348000 | 0.00338 | 9.69 | 39.6 | 2E12 single-chain variable fragment (scFv) (scFv, Any tag on the free scFv used in SPR is not described; also called 2E12 scFv) scFv: QVQLKESGPGSVAPSQSLSITCTVSGFSLTGYGVNWVRQPPGKGLEWLGMIWGDGSTDYNSALKSRLSITKDNSKSQVFLKMNSLQTDDTARYYCARDGYSNFHYYVMDYWGQGTSVTVSSGGGGSGGGGSGGGGSGGGGSDIVLTQSPASLAVSLGQRATISCRASESVEYYVTSLMQWYQQKPGQPPKLLISAASNVESGVPARFSGSGSGTDFSLNIHPVEEDDIAMYFCQQSRKVPWTFGGGTKLEIK
4 | – | – | – | – | – | – | – | – | 141000 | 0.00497 | 35.2 | 104 | Interceptor X0124 (X0112 + X0113) (other, Monovalent anti-CD28 polypeptide heterodimer; After protein A alone the preparation also holds X0113 homodimer; also called Heterodimer 1 (X0124); X00124) chain 1: QVQLKESGPGSVAPSQSLSITCTVSGFSLTGYGVNWVRQPPGKGLEWLGMIWGDGSTDYNSALKSRLSITKDNSKSQVFLKMNSLQTDDTARYYCARDGYSNFHYYVMDYWGQGTSVTVSSGGGGSGGGGSGGGGSGGGGSDIVLTQSPASLAVSLGQRATISCRASESVEYYVTSLMQWYQQKPGQPPKLLISAASNVESGVPARFSGSGSGTDFSLNIHPVEEDDIAMYFCQQSRKVPWTFGGGTKLEIKSSSASTKGPSVFPLAPSSKSTSGGTAALGCLVKDYFPEPVTVSWNSGALTSGVHTFPAVLQSSGLYSLSSVVTVPSSSLGTQTYICNVNHKPSNTKVDKKVRTEPKSSDKTHTCPPCPSGAPELLGGPSVFLFPPKPKDTLMISRTPEVTCVVVDVSHEDPEVKFNWYVDGVEVHNAKTKPREEQYNSTYRVVSVLTVLHQDWLNGKEYKCKVSNKALPAPIEKTISKAKGQPREPQVYTLPPSRDELTKNQVSLTCLVKGFYPSDIAVEWESNGQPENNYKTTPPVLDSDGSFFLYSKLTVDKSRWQQGNVFSCSVMHEALHNHYTQKSLSLSPGK chain 2: TVAAPSVFIFPPSDEQLKSGTASVVCLLNNFYPREAKVQWKVDNALQSGNSQESVTEQDSKDSTYSLSSTLTLSKADYEKHKVYACEVTHQGLSSPVTKSFNRGERTEPKSSDKTHTCPPCPSGAPELLGGPSVFLFPPKPKDTLMISRTPEVTCVVVDVSHEDPEVKFNWYVDGVEVHNAKTKPREEQYNSTYRVVSVLTVLHQDWLNGKEYKCKVSNKALPAPIEKTISKAKGQPREPQVYTLPPSRDELTKNQVSLTCLVKGFYPSDIAVEWESNGQPENNYKTTPPVLDSDGSFFLYSKLTVDKSRWQQGNVFSCSVMHEALHNHYTQKSLSLSPGK
5 | – | – | – | – | – | – | – | binds | 149000 | 0.0065 | 43.7 | 134 | Interceptor X0132 (X0130 + X0131) (other, also called Heterodimer 2 (X0132)) chain 1: QVQLKESGPGSVAPSQSLSITCTVSGFSLTGYGVNWVRQPPGKGLEWLGMIWGDGSTDYNSALKSRLSITKDNSKSQVFLKMNSLQTDDTARYYCARDGYSNFHYYVMDYWGQGTSVTVSSGGGGSGGGGSGGGGSGGGGSDIVLTQSPASLAVSLGQRATISCRASESVEYYVTSLMQWYQQKPGQPPKLLISAASNVESGVPARFSGSGSGTDFSLNIHPVEEDDIAMYFCQQSRKVPWTFGGGTKLEIKSSSASTKGPSVFPLAPSSKSTSGGTAALGCLVKDYFPEPVTVSWNSGALTSGVHTFPAVLQSSGLYSLSSVVTVPSSSLGTQTYICNVNHKPSNTKVDKKVRTEPKSSDKTHTCPPCPSGAPELLGGPSVFLFPPKPKDTLMISRTPEVTCVVVDVSHEDPEVKFNWYVDGVEVHNAKTKPREEQYNSTYRVVSVLTVLHQDWLNGKEYKCKVSNKALPAPIEKTISKAKGQPREPQVYTLPPSRDELTKNQVSLTCLVKGFYPSDIAVEWESNGQPENNYKTTPPVLDSDGSFFLYSKLTVDKSRWQQGNVFSCSVMHEALHNHYTQKSLSLSPGKSRTVAAPSVFIFPPSDEQLKSGTASVVCLLNNFYPREAKVQWKVDNALQSGNSQESVTEQDSKDSTYSLSSTLTLSKADYEKHKVYACEVTHQGLSSPVTKSFNRGE chain 2: TVAAPSVFIFPPSDEQLKSGTASVVCLLNNFYPREAKVQWKVDNALQSGNSQESVTEQDSKDSTYSLSSTLTLSKADYEKHKVYACEVTHQGLSSPVTKSFNRGERTEPKSSDKTHTCPPCPSGAPELLGGPSVFLFPPKPKDTLMISRTPEVTCVVVDVSHEDPEVKFNWYVDGVEVHNAKTKPREEQYNSTYRVVSVLTVLHQDWLNGKEYKCKVSNKALPAPIEKTISKAKGQPREPQVYTLPPSRDELTKNQVSLTCLVKGFYPSDIAVEWESNGQPENNYKTTPPVLDSDGSFFLYSKLTVDKSRWQQGNVFSCSVMHEALHNHYTQKSLSLSPGKSRASTKGPSVFPLAPSSKSTSGGTAALGCLVKDYFPEPVTVSWNSGALTSGVHTFPAVLQSSGLYSLSSVVTVPSSSLGTQTYICNVNHKPSNTKVDKKV
